# Measured values reported in US20040081647.
# B1: MMP7 (enzyme, UniProt P09237 95-267, looked up, species assumed)
# Matrilysin: YSLFPNSPKWTSKVVTYRIVSYTRDLPHITVDRLVSKALNMWGKEIPLHFRKVVWGTADIMIGFARGAHGDSYPFDGPGNTLAHAFAPGTGLGGDAHFDEDERWTDGSSLGINFLYAATHELGHSLGMGHSSDPNAVMYPTYGNGDPQNFKLSQDDIKGIQKLYGKRSNSRKK
# B2: Cathepsin G (enzyme, UniProt P08311 21-244, looked up, species assumed)
# Cathepsin G: IIGGRESRPHSRPYMAYLQIQSPAGQSRCGGFLVREDFVLTAAHCWGSNINVTLGAHNIQRRENTQQHITARRAIRHPQYNQRTIQNDIMLLQLSRRVRRNRNVNPVALPRAQEGLRPGTLCTVAGWGRVSMRRGTDTLREVQLRVQRDRQCLRIFGSYDPRRQICVGDRRERKAAFKGDSGGPLLCNNVAHGIVSYGKSSGVPPEVFTRVSSFLPWIRTTMRS
# B3: ADAMTS4 (enzyme, UniProt O75173 213-837, looked up, species assumed)
# A disintegrin and metalloproteinase with thrombospondin motifs 4: FASLSRFVETLVVADDKMAAFHGAGLKRYLLTVMAAAAKAFKHPSIRNPVSLVVTRLVILGSGEEGPQVGPSAAQTLRSFCAWQRGLNTPEDSDPDHFDTAILFTRQDLCGVSTCDTLGMADVGTVCDPARSCAIVEDDGLQSAFTAAHELGHVFNMLHDNSKPCISLNGPLSTSRHVMAPVMAHVDPEEPWSPCSARFITDFLDNGYGHCLLDKPEAPLHLPVTFPGKDYDADRQCQLTFGPDSRHCPQLPPPCAALWCSGHLNGHAMCQTKHSPWADGTPCGPAQACMGGRCLHMDQLQDFNIPQAGGWGPWGPWGDCSRTCGGGVQFSSRDCTRPVPRNGGKYCEGRRTRFRSCNTEDCPTGSALTFREEQCAAYNHRTDLFKSFPGPMDWVPRYTGVAPQDQCKLTCQAQALGYYYVLEPRVVDGTPCSPDSSSVCVQGRCIHAGCDRIIGSKKKFDKCMVCGGDGSGCSKQSGSFRKFRYGYNNVVTIPAGATHILVRQQGNPGHRSIYLALKLPDGSYALNGEYTLMPSPTDVVLPGAVSLRYSGATAASETLSGHGPLAQPLTLQVLVAGNPQDTRLRYSFFVPRPTPSTPRPTPQDWLHRRAQILEILRRRPWAGRK
# Molecular target: recombinant human TNFα (RDI) (UniProt P01375)
# Sequence (P01375 77-233): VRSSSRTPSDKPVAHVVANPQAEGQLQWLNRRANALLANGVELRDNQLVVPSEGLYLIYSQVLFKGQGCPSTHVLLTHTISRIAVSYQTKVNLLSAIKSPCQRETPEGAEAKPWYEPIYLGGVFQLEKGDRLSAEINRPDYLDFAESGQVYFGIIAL
Protein,log reduction in TNFα activity (L929 cytotoxicity bioassay after overnight digestion),inactivation of TNFα (L929 cytotoxicity bioassay after overnight digestion)
B1,MMP7 (1.22),–
B2,–,Cathepsin G (under: Proteases that did not inactivate TNF)
B3,–,ADAMTS4 (under: Proteases that did not inactivate TNF)
